In patent publication US20040138156A1, “Therapeutic regulation of deoxyribonuclease-1-like-3 activity” (priority 2002, published 2004):
Entries after “also recorded” stand apart in the source; their conditions may differ.

B1: D1: Murine deoxyribonuclease 1, glycosylated, supplied as media conditioned by transfected HeLa cells (protein, UniProt P49183 23-284, looked up)
Deoxyribonuclease-1: LRIAAFNIRTFGETKMSNATLSVYFVKILSRYDIAVIQEVRDSHLVAVGKLLDELNRDKPDTYRYVVSEPLGRKSYKEQYLFVYRPDQVSILDSYQYDDGCEPCGNDTFSREPAIVKFFSPYTEVQEFAIVPLHAAPTEAVSEIDALYDVYLDVWQKWGLEDIMFMGDFNAGCSYVTSSQWSSIRLRTSPIFQWLIPDSADTTVTSTHCAYDRIVVAGALLQAAVVPNSAVPFDFQAEYGLSNQLAEAISDHYPVEVTLRKI

Tests used:
bone marrow macrophages = experiment: Induction of D1L3 in cultured bone marrow macrophages (anti-D1L3 immunoblot, RDA, zymogram); format: cell-based, C57BL mice; settings: 100 U/ml for the interferons
Procedure: FIG. 22. Normal and induced expression of D1L3 in murine macrophages. […] In anti-D1L3 blots of cell lysates, the protein is seen both as a ^˜34 kDa uncleaved molecule and a ^˜28 kDa cleaved molecule. […] Cells were plated on serum-coated tissue culture dishes and incubated overnight, the next morning, non-adherent cells (N) were rinsed vigorously with PBS 1×, and both adeherent (A) and non-adherent cells (N) from C57BL, NZB/W, BXSB, and MRL were lysed and immunoblotted with anti-D1L3. While the ^˜34 kDa size band consistent with uncleaved D1L3 is present in both adherent and non-adherent, the cleaved form (^˜28 kDa) is present almost exclusively in the adherent population of presumed macrophages. Also noticable are the higher levels of expression of D1L3 in the 3 latter lupus strains. Panel B: Untreated bone marrow macrophages from NZB/WF1 mice have a much higher baseline expression expression of D1L3 than C57BL macrophages.
Induction is present in macrophages from both strain though the absolute level of induction appears greater in C57BL than in the SLE-prone NZB/W F1 strain. NZB/W protein loads in Ifn-γ-negative lane is slightly underloaded relative to actin. Panel C: Bone marrow macrophages isolated from bone marrow (via adherence) from MRL and C57BL mice, and cultured for 2 days in vitro, were induced by Ifn-γ. […] No induction of D1L3, RDA-DNASE, or zymographic DNASE activity is evident upon tratement with 100 U/ml of Ifn-alpha. […] Panel D: Bone marrow macrophages from C57BL and MRL mice cultured for 7 days in the presence of GM-CSF were induced with Ifn-γ, again showing the higher baseline levels of 28 kDa enzyme in the lupus prone strain, and in C57BL showing induction of levels aftern Ifn-γ. […]
Assays of Murine Cells. […] Splenocytes were counted using a hemochromocytometer, and plated at 2 million cells/ml on plastic 6-well Falcon tissue culture dishes (Becton Dickinson) in RPMI with 10% FCS. […]

Ad5.CMV-GFP = experiment: Adenoviral gene transduction of HeLa cells in conditioned media, GFP immunoblot; format: cell-based, adenovirus serotype 5; settings: lysed at 72 hours
Procedure: FIG. 30. D3-media confers an in vitro barrier to adenoviral gene transduction (BT). This figure provides anti-GFP immunoblots at 1:5000 (Clontech) of Ad.V.GFP infected (MO 100:1) of 100,000 HeLa cells. Infection of HeLa cells with Ad5.CMV-GFP (a 1st generation (DE1/DE3) adenovirus serotype 5 expressing GFP under the control of CMV-IE promoter (Qbiogene)) was performed in the presence of D1, D3, D1+D3CT, or control conditioned media. Infected cells were lysed at 72 hours and tested for GFP expression (n=3 expts). […] Thus DNASE1L3 or DNASE enzymes linked to the D3CT diminish adenoviral gene transfer. […] Actin levels were generally equivalent in infected cells.

liposomal-bound plasmid = experiment: Cell-free nuclease activity assay on free or FuGene-bound plasmid; format: biochemical; settings: FuGene-bound plasmid, 37° C., 1 hour
Procedure: FIG. 16. […] Representative experiment (n=3) of exposure of […] free (−) or liposomal-bound (+FuGene) plasmid to control media with 10% fetal calf serum (lanes 1-2), D1 (lanes 3-4), D1L3 (lanes 5-6), D3DCT (lanes 7-8), and N196K-D3 (lanes 9-10).
Cell-Free Nuclease Activity Assay. Free plasmid DNA or plasmid complexed with lipofection reagent was incubated with conditioned at 37° C. for 1 hour. The incubation was terminated with […] EDTA, and DNA extracted using Promega Wizard DNA Purification System, eluted in […] water, and electrophoresed on a 1% agarose gel.

HeLa cells = experiment: BT assay: liposomal N1-eGFP transfection of HeLa cells in DNASE-conditioned media, GFP immunoblot; format: cell-based
Procedure: In the main assay, an eukaryotic marker such as green fluorescent protein (GFP) expression plasmid complexed with a lipid reagent is transfected into HeLa cells incubated in control media, D1L3-conditioned media, or D1-conditioned media (FIG. 4). The assay is not limited to the use of GFP as a marker, but could use any of many expressed biomarkers encoded by nucleotides that can be assayed either immunochemistry, fluorescent detection, or enzymatic detectection, and these include but are not circumscribed to luciferase, chloramphenicol acetyl-transferase, antibiotic or chemical resistance genes, Beta-galactosidase, FLAG-, myc-hemaglutinnin-, or other epitope tagged molecules, as well as other markers of gene or nucleotide transduction. The endpoint of the assay is the detection of a synthesized protein, but could easily have been the detection of a transcribed gene product, since the assay ultimately measures the ability of D1L3 added the media/milieu overlaying the cells to block the ultimate association of an expressible plasmid with the transcriptional machinery.
(§1) Transfection Reagents and Resistance Assays. Lipofection of respective pcDNA3.1-D1 or -D3 ([…] purified with Promega Wizard Plus DNA system) was performed independently into 1-2 million HeLa cells, which produce a low background of secreted nuclease activity, when grown in DMEM with 10% FCS (LifeTech) in 6 well culture plates (Becton-Dickinson). […] Media of the transfected cells were conditioned for 36-48 hours and served as source of the respective enzymes. Nuclease activity in conditioned supernatant was measured by RDAs, zymograms and by testing activity against supercoiled pBluescript (Stratagene).
To test for the ability of the nucleases to block transfection, the media in individual wells of naive HeLa cells were replaced with conditioned media, and cells transfected with […] of N1-eGFP plasmid (Clontech) using various transfection reagents (FIG. 11) and their respective protocols. GFP expression by immunoblot directly correlated with transfection efficiency in present experiments. Thus, transfection efficiency was compared by densitometric analysis of GFP immunoblots.
GFP expression was also examined by fluorescent microscopy using a FITC filter. For microscopy, cells were fixed for 5 minutes in 4% paraformaldehyde dissolved into 1% PBS.
Antibody Reagents and Immunoblotting. After 24-36 hours, cells transfected with N1-eGFP were lysed in SDS-buffer and immunoblotted for expression with anti-GFP at 1:5000 dilution (Clontech). To confirm nearly equal protein loading per lane, anti-β-actin monoclonal antibody at 1:7,000 dilution (Sigma) were prepared. For immunoblots, […] protein was eletrophoretically separated by 12% SDS-PAGE gel, followed by electrotransfer to Immobilon-P membranes (Millipore) for expression studies. Immunoblotting was performed using ECL detection (Amersham).
Transfection efficiency was compared, wherever possible, by pixel densitometry of the scanned images using Scion Image 4.02 software.

free DNA = experiment: Radial diffusion assay (RDA) of nuclease activity against free DNA in conditioned media; format: biochemical
Procedure: as §1
Nuclease Assays. Nuclease activity against “naked” or free DNA in CM was quantified by densitometry of RDAs. For assays of media by murine cells, RDAs were performed using conditioned media, after 36 hour incubation of equal numbers of target cell population. Each conditioned media was sampled in triplicate. RDAs for all four mice were performed on a single dish. For RDAs, 2-5 ul of conditioned supernatant was dotted on 100 mm dishes containing 2% agarose, 250 ug/ml DNA, 0.001% EtBr, 0.5% filtered milk, 10 mM Ca^+2/MgCl2; and 12.5 ug/ml kanamycin. Multiple observations were generated for every sample obtained. After 24 hours of 37° incubation, plates are photographed under UV transillumination; and scanned photos were analyzed with NIH image. For RDAs, the activity was quantified as the product of mean density and area (traced on image) of zones of clearing. For observations of serum/urine, 2-5 ul of serum were dotted on agarose plates.
Zymograms are in-gel renaturation assays performed by SDS-PAGE through a gel impregnated with 200 µg/ml DNA and ethidium bromide, eluting away SDS with repeated washes in 25 mM Tris-HCl pH 7.5, then incubating for 12-16 hours at 37° C. in 25 mM Tris-HCl pH 7.5 with 10 mM Ca^+2/Mg^+2 buffer. Activity is measured as dark “bands” of DNA digestion (Rosenthal et al., (1977) Anal. Biochem. 80, 76-90) and quantified using scanned images using NIH Image. Photographed RDA results were scanned 600 dpi Tiff images, and activity was measured as pixel area times density of traced zones of clearing (n=3 for each zone). Student's T-test was used to compare paired results. Nuclease activity ratios were obtained by comparing intra-plate results.

| Molecule | induction of D1L3 in macrophages (bone marrow macrophages) | GFP expression after Ad5.CMV-GFP infection / barrier to infection (Ad5.CMV-GFP) | state of liposome-bound plasmid after exposure to conditioned media (liposomal-bound plasmid) | GFP fluorescence by fluorescent microscopy (HeLa cells; 24 hours) | mean ratio of GFP expression in exposed cells versus control (HeLa cells; n=20 assays, anti-GFP immunoblot) | BT activity / GFP expression or transfection efficiency in cells exposed to undiluted conditioned media (HeLa cells; undiluted conditioned media, FuGENE-6, anti-GFP immunoblot) | RDA activity relative to D1L3 conditioned media (free DNA; densitometry of RDAs, n=24 assays) | RDA nuclease activity of conditioned media (in words) (free DNA; media conditioned by transfected HeLa cells) | mean RDA activity of conditioned media (free DNA; media conditioned by transfected HeLa cells, 24 hours, 37 degrees) |
| --- | --- | --- | --- | --- | --- | --- | --- | --- | --- |
| CCCCCCCCCCCCCC(=O)O[C@@H]1[C@@H](C)[C@@]2(O)[C@@H](C=C(CO)C[C@]3(O)C(=O)C(C)=C[C@@H]23)[C@@H]2C(C)(C)[C@]12OC(C)=O [PMA, phorbol myristate acetate] | inducible |  |  |  |  |  |  |  |  |
| lipopolysaccaride [LPS] | inducible |  |  |  |  |  |  |  |  |
| B1 |  | increased expression of GFP | all remaining plasmid migrated in a nicked or linearized conformation | abundant GFP | 0.8 ± 0.2 | did not differ significantly from controls; also recorded: no significant decrease; also recorded: no effect | ~2.7 fold | greater RDA activity than D3 | 28.2 Units |
